From a protein production outcome set (Wang et al. 2014) come the findings set out here.

The series is described as follows: label from the status in PepcDB records.
Regarding “MGMMSSLRRLGKRRPVLGILFVVVLSIGLVGSYAIFSTPKAPVAPSESQAQAPDANQQAEAMQKAAQEQISKLETDIANLQKDLQAKPGDIATAVKLGDSQYNLGTLYLFVNGDQEKATQTFKAAVATYQQVLKLNPAEKGINLRLAGAALYAGDSKLAEDNFQAAIKADPNDNNARMTYGMYLASMKGDYQGAIDQWQEILKHNPDKDLATQVQEMIKQAETAKQDANKSAANQPPANQPQANGGQGSGK”, the protein production entry is “failed”.
Turning to “MGNAGESKKSNSDSAKGEEKASGSLTISGSSAMQPLVLAAAEKFMEENPDADIQVQAGGSGTGLSQVSEGAVQIGNSDVFAEEKEGIDAKALVDHQVAVVGMAAAVNPDAGVKDISKDELKKIFTGKIKNWKELGGKDQKITLVNRPDSSGTRATFVKYALDGAEPAEGITEDSSNTVKKIIADTPGAIGYLAFSYLTDDKVTALSIDGVKPEAKNVATGEYPIWAYQHSYTKGEATGLAKEFLDYLKSEDIQKSIVTDQGYIPVTDMKVTRDANGKQSLEHHHHHH”, the protein production entry is recorded as “failed”.
To “MGNCCGTAGSLAQNDNKPKKGRKKQNPFSIDYGLHHGGGDGGGRPLKLIVLNDPTGREIESKYTLGRELGRGEFGVTYLCTDKETDDVFACKSILKKKLRTAVDIEDVRREVEIMRHMPEHPNVVTLKETYEDEHAVHLVMELCEGGELFDRIVARGHYTERAAAAVTKTIMEVVQVCHKHGVMHRDLKPENFLFGNKKETAPLKAIDFGLSVFFKPGERFNEIVGSPYYMAPEVLKRNYGPEVDIWSAGVILYILLCGVPPFWAETEQGVAQAIIRSVLDFRRDPWPKVSENAKDLIRKMLDPDQKRRLTAQQVLDHPWLQNAKTAPNVSLGETVRARLKQFTVMNKLKKRALRVIAEHLSDEEASGIREGFQIMDTSQRGKINIDELKIGLQKLGHAIPQDDLQILMDAGDIDRDGYLDCDEFIAISVHLRKMGNDEHLKKAFAFFDQNNNGYIEIEELREALSDELGTSEEVVDAIIRDVDTDKDGRISYEEFVTMMKTGTDWRKASRQYSRERFNSISLKLMQDASLQSCVFDILANERAEYGDQERKTVLAFGCV” belongs “failed”.
To “MGNIIRALVAFIPTDRCQSYVVGDLREMPLDRMVDLSGSQLRRFPLHVCSFTELVKLYLSDNHLHSLPPDLAQLQNLQILALDFNNFKALPQAVCTLKQLCILYLGNNKLCDLPDELSLLQNLRTLWLESNCLTRLPDVVCELSLLKTLHAGSNALRLLPGQLRRLRELRTIWLSGNQLADFPSVLLHMPFLEVIDVDRNSIRYFPSLAHLTNLKLVIYDHNPCRNAPKVGKGVRRVGRWAEETPEPDRRKTRRSALAKEENQEPPPLLPPSS” belongs “failed”; to “MGNILKDKSMAFAIQIVNLHKYPNKRKAYSLSDQILISGTAIGVLQKETECAESNADFIHNIASPQKNVTKPFSGLNCYLKQNIYPKQNIQACLQTQMNLEHHHHHH”, “failed”; to “MGNIYQITVEEKAEHQRTLSFEFSLHDDLFKLLEKVDGKMDMTPEQTQAFMVGLKLFGEVMMQQRKHPLFKEFSAPFRAFMMNLKKQ”, “not failed”.
For the sequence “MGNLSKPVGIGAGGLDLLMPMHLRLDPLGEIAGCGPTLRKLFAESPVRRPFFDLFKVRRPTGIETPAALAARTGVRLHLTTLDGGVSLRGVATPKHEGRGLLLNLSFGISVIEAVRRHGLTDGDFAPTDLAVELLYLVEAKTAVAEELRRLNGRLERARRLAEEEALTDELTGLRNRRAIDQALEAVIATRRPFGLMHLDLDFFKEVNDSFGHAAGDEVLRAVAQVLSRETRTGDTVARIGGDEFMMLFPGLSDPAPMKRLAARVIADVARPIPFGGGVCRVSASIGMTLSVRYDRPDLARMLADADEALYAAKRAGRGTAVLSEGMRPERRRDP”, the protein production result is “failed”.
For “MGNYKFRISEMLPNAWFHKLKDVTKHSKPKNKASSSSSNTCSKKKPSSDSLPQHSYFSNSLVANNPPHHNSPRNSLHTKKMSKRKTLYKPSLKPLTPPPLLVSASFNKSKINDQDSSYSLFPAIETSPESFVYSFYEEDDDDEFVEFSNFKINTKNKAFTKQKVKVIDSVEKACTASKPIKKPQKSHLSVKISRDEDDNEYKAEKKYQRQVSSGRKPSAGINLKRVNSPRIQLSGTRRSTSRRSESKQDVLESFAVMKRSVDPKKDFRESMIEMIEENNIRASKDLEDLLACYLTLNPKEYHDLIIHVFEQIWLQLTKTK”, the protein production entry is on record as “failed”.
The value for “MGNYLLRKLSCLGENQKKPKKGNPDEERKRQEMTTFERKLQDQDKKSQEVSSTSNQENENGSGSEEVCYTVINHIPHQRSSLSSNDDGYENIDSLTRKVRQFRERSETEYALLRTSVSRPCSCTHEHDYEVVFPH” was “not failed”; that for “MGPAVKKASKGILSDVLKCLTNNIKHMREFTLAVVDKMVAGLSDFVDATHLLKPASNRSD” was “failed”; that for “MGPKVSVITVCYNAEEFIENAIYSVLNQSYENIEYIIIDGASKDNTVSIINKYRSVMACFISEPDKGMYEAMNKGIKAATGDILYFLNSDDVFYDEYVVENVVKVFQKNNNVELIYGPIIIRDPTTNESFIKPHDYITKSYFIYNSICQQGIFYKASVFNKCGQFNDTYKIVGDYEWELRAFYKYNIKRKYYEGIIAIFRDGGMCNCDKFSDLHAKERTKVIKEYFNIFVIYKYKFLLFCRSAIKRLELEHHHHHH” was “failed”.
As for “MGQAPDRPHLETFLARLRAGAKILELGCGGGQDSEYMLSAGFDVHPTDGTPDIAKAAQARLGIPVRTLLFENIEDAALYDAVWANACLLHVPRLALPGIIGRIHTALKPGGVFYASFKAGEVEGRDTFGRYYNYPSKAWLEETYGQFAWTEVEIEARQGSGYDKLPTDWLHVTATKALEHHHHHH”, the protein production result is listed as “failed”.
As to “MGQMFGVACIDEQSGIVGQAWNNNSVRYISIDEDAVITIQSGPVVGKVAVSNDKTLAYGATINGANTVYVYKKSQAWVPSRLSDISSGTDVWAVALNGDNQWLYYVTANGRLGRIEVDNPTHNEILFEHNDFSGGPFAYIAYSAFEDCFYVTTDKNKILKVWVKEDGTHAYEQINQNNTGTTDGFLADEAKFQYLRGLTIDEDGNIFVCQGDNSHVIRKIAYDENMEKRYVTTVLGTSTVHGTDDGSPDIALFNGPQDISYDGNGGYWIAMRYEPALRKYSIELEHHHHHH”, the protein production result is reported as “failed”.
Consider “MGQPVASKGRGATPTVGKAMLNKYARAFFTRVLTPFAAFLIRRGVSPDTVTLLGTAGVVAGALVFYPMGEFFWGTVVITLFVFSDLVDGNMARQLGRSSRWGAFLDSTLDRVADGAIFGGLALWYAGGGDDIVLCAVSIFCLASGQVVSYTKARGEAIGLPVAVNGLVERAERLVVSLVAAGFAGLHKFGVPGIQYLLPIALWIVAVGSLVTLVQRVVTVRREAAEADAAAQESQGTEAAK”, for which the protein production entry is “failed”.
As for “MGRCSHGLREGRRGEPVRDPTPLDRAGCSVLPGGAKLYYSMAFKMHVPPRGSGHIEEPRRLDKALKALKKSRLLDMLEKVDPGFQSLRVFETVHDPLYIKGILAELEAALDSYFIDSDTYISPGTQAALEALAASVEQASEHVAEGGKALVLGRPPGHHAGVAGPGLGAPSLGACLVNAAASLAYRLAGRGLKVLILDFDANHGNGTQEILQALPMGDRLFHLDMHQDWRKSFPWTGEPGVTGDGTALNIVLPEGSGDDIVLALIEGLEPLVNESEPDAVVVSMGFDGYSGDSPLTLTKLTSHTFHALGRLASRYPVAAVLETGFGRGLELGLPAFIAGLLGLGNPVQEEAIKSDEEVWREFLETNKEVVEHG”, the protein production entry is “failed”.
As for “MGRFHQYQPRQLSVASVNHADDNDRLPAISLVTPSFNQASFVEKTLESVLGQNYPKLQYIVQDGLSTDGTREILGRYATRNVDIRIETDGGQTDALNKGFAHADGEIMGYLNSDDLLLPGTLCLVGRYFRDNPSVDVIYGNRLIVDEAGREVGRWVLPEHDSEILTFIDYVPQETMFWRRRIWERVGGRFDTDFHFAMDWELLLRFIHAGAVFRHLPGLFGAFRVHGQQKSQAEFLVRGIGEMNGLRLRYGGRNISFVRRIALHWAYLSQHRLADAAFEASLRKNG”, the protein production result is on record as “failed”.
Consider “MGRGYEVISTEVCPLCKGKGKSKSVDFMKISEKDIDSFLKNGAVCEKCKGKGSIEITRPCEACEGLGKIYTCKVCGARIHNPEDAEDEICSTCARSQHVYALDESCDLEHHHHHH”, for which the protein production entry is reported as “not failed”.
To “MGRKIVFFDIDGTLLDEQKQLPLSTIEAVRRLKQSGVYVAIATGRAPFMFEHVRKQLGIDSFVSFNGQYVVFEGNVLYKQPLRREKVRALTEEAHKNGHPLVFMDAEKMRASIGDHPHIHVSMASLKFAHPPVDPLYYENKDIYQALLFCRAEEEEPYVRNYPEFRFVRWHDVSTDVLPAGGSKAEGIRMMIEKLGIDKKDVYAFGDGLNDIEMLSFVGTGVAMGNAHEEVKRVADFVTKPVDKEGIWYGLKQLQLIR” belongs “not failed”.
To “MGRKVRAYFVHLFTASGVAFAFLAMREVVRVDLDPRWVFGWLTLAVFIDAADGPLARLWDVKLYASRILGKTIDLIVDYLTFTFIPLTLVWRMDWLPGWDGLWVTLAMVASLLGFANTAAKQSQEGFFLGFPSYWNVVAYYVGLLAVEYGAVGAYVSLGSVLTLTVLTLVPVRFVYPNAAPTPWRAIVTVGGVAWLGLLLALLPTFPELPAWGGDWVLGVSFVYPAFYFGLSGWLDWTSRQS” belongs “failed”; to “MGRLFVVNLEGKIYSCKHCKTHLATYEDIISKSFHCKHGKAYLFNKVANVSIGETEERLMMTGKHTVADIFCVSCGSIVGWKYETAHEKNQKYKEGKSVLERFKISGPDGSNYWVSSHGRHIGGSDADDA”, “failed”.
“MGRLGWVDPESFMQRNHELMDAYSAGKLAMEEFMAFSLEPMAGRTPEEVDHLVGPWVEDVIEPIIYSDACKCIAQHRAKGDRILVISASGVHLVKPIAERLGIDEVLGIELDVQHGVYSGATVGVLTYREGKITRLMEWLDAEGENLEGASFYSDSRNDLPLLLKVDHPNVVNPDPVLLEHAQQAGWPVHTWV”: the protein production result was “failed”.
On to “MGRRKKILFTDYFINLVDTYKLNQVGERTYNKYCLTHRHLKKICPDLYLQDMNANDYQQILNEFGKTHEKATTVDFHHQLAWALKRAYNVDGLTDRDVTYDAQIPKGVVTNKKKPKFMELDDMKKLVVTLKYLNSSYANFFLILLKTGLRFAELLGITLEDIDFEKKTISINKTLDYKKGAYDENFSRRFKSTKNKYSIRTIPVDDAVIYMFWRNAKGADKDESIFGSIKGFQYNSSLNNKLEQTCKYAGVPVITLHGLRHEHATYLVSQGIDSRAVAERLGHVDDSVTREVYIHRLETERVRDNQQIMRSVSKI”, for which the protein production entry is given as “failed”.
With “MGRRLVPLTLDNLPDLPKRCRACVFWELDPVSGEAAVKAGTSALEKEAWISAVLLDWGSCGRVVYVDDVPVGFVLYAPPAYVPRSTAFPTSPVSPDAVQLMTAFIMPGYQGQGLGRVMVQTVAKDLLRRGFKAIEAFGDAHWK”, the protein production entry is on record as “failed”.
The value for “MGRVKLELKRIEKSTNRQITFSKRKKGLIKKAYELSTLCDIDLALLMFSPSDRLCLFSGQTRIEDVLARYINLPDQERENAIVFPDQSKRQGIQNKEYLLRTLEKLKIEDDMALQINEPRFIPH” was “failed”.
In the case of “MGRVLDRIEVVAEEIRGQAVQSEADCRLTDAAAGLLRDSGAIRLLQPRLYGGYEVHPREFAETVMGVAALDGASGWVTGIVGVHPWELAFADPQVQEEIWGEDNDTWMASPYAPMGVATPVDGGYVLKGRWSFSSGTDHCQWAFLGAMVGDGEGGIATPSSLHVILPRTDYQIVEDTWDVIGLRGTGSKDLIVDGAFVPGYRTLNAAKVMDGRAQKEAGRPEPLFNMPYSCMFPLGITAAVIGITEGALACHIAVQKDRVAITGQKIKEDPYVLSAIGESAAEINASRVSLIETADRFYDKVDAGKEITFEERAIGRRTQIAAAWRAVRAADEIFARAGGGALHYKTPMQRFWRDAHAGLAHAVHVPGPTNHASALTQLGGEPQGMMRAMI”, the protein production entry is recorded as “not failed”.
